# Experimental data as given in the Immune Epitope Database (IEDB).
# Legend:
# HLA-B*08:03 = assay: IEDB peptide-MHC binding, purified MHC/direct/fluorescence; filed as Kd, often an IC50 or EC50 that approximates it; ≥ and ≤ were set here for values at or beyond the usual limits of such assays; settings: source organism: Ravn virus - Ravn, Kenya, 1987
# HLA-A*26:02 = assay: as above; settings: source organism: Ravn virus - Ravn, Kenya, 1987
# HLA-A*69:01 = assay: as above
# HLA-B*58:01 = assay: as above
# HLA-A*68:02 = assay: as above; settings: source organism: Marburg virus - Musoke, Kenya, 1980
# HLA-A*11:01 = assay: as above
# HLA-A*26:03 = assay: as above; settings: source organism: Ravn virus - Ravn, Kenya, 1987
# HLA-A*31:01 = assay: as above
# HLA-B*44:02 = assay: as above
# HLA-B*18:01 = assay: as above
# HLA-B*27:05 = assay: as above
# HLA-A*02:01 = assay: as above
# HLA-B*15:17 [1] = assay: as above; settings: source organism: Marburg virus - Musoke, Kenya, 1980
# HLA-B*40:01 = assay: as above
# HLA-B*57:01 = assay: as above
# HLA-B*08:02 = assay: as above
# HLA-B*48:01 = assay: as above
# HLA-B*07:02 = assay: as above
# HLA-A*01:01 = assay: as above
# HLA-B*39:01 [2] = assay: as above; settings: source organism: Ravn virus - Ravn, Kenya, 1987
# HLA-A*02:50 = assay: as above; settings: source organism: Rickettsia typhi
# HLA-B*15:01 = assay: as above
# HLA-A*29:02 = assay: as above; settings: source organism: Rickettsia typhi
# HLA-A*02:10 = assay: as above; settings: source organism: Rickettsia typhi
# HLA-A*02:12 = assay: as above
# HLA-A*80:01 = assay: as above; settings: source organism: Rickettsia typhi
# HLA-A*02:19 = assay: as above; settings: source organism: Rickettsia typhi
# HLA-B*51:01 = assay: as above; settings: source organism: Rickettsia typhi
# HLA-A*23:01 = assay: as above; settings: source organism: Rickettsia typhi
# HLA-A*02:11 = assay: as above
# HLA-A*24:03 = assay: as above; settings: source organism: Rickettsia typhi
# HLA-A*30:01 [3] = assay: as above; settings: source organism: Rickettsia typhi
# HLA-A*03:01 = assay: as above
# HLA-B*08:01 = assay: as above; settings: source organism: Giardia lamblia ATCC 50803
# HLA-A*02:03 = assay: as above; settings: source organism: Giardia lamblia ATCC 50803
# HLA-B*46:01 = assay: as above
# HLA-B*38:01 = assay: as above; settings: source organism: Giardia lamblia ATCC 50803
# HLA-A*26:01 = assay: as above; settings: source organism: Giardia lamblia ATCC 50803
# HLA-B*15:09 = assay: IEDB peptide-MHC binding, purified MHC/competitive/fluorescence; filed as Kd, often an IC50 or EC50 that approximates it; ≥ and ≤ were set here for values at or beyond the usual limits of such assays; settings: source organism: Giardia lamblia ATCC 50803
# HLA-B*15:17 [4] = assay: as above; settings: source organism: Giardia lamblia ATCC 50803
# HLA-A*30:01 [5] = assay: as above; settings: source organism: Giardia lamblia ATCC 50803
# HLA-B*39:01 [6] = assay: as above; settings: source organism: Giardia lamblia ATCC 50803
# HLA-B*15:02 = assay: IEDB peptide-MHC binding, purified MHC/direct/fluorescence; filed as Kd, often an IC50 or EC50 that approximates it; ≥ and ≤ were set here for values at or beyond the usual limits of such assays; settings: source organism: dengue virus type 4
# [7] = source organism: Marburg virus - Musoke, Kenya, 1980
# [8] = source organism: Rickettsia prowazekii
# [9] = source organism: Rickettsia typhi
# [10] = source organism: Giardia lamblia ATCC 50803
sequence,measurement,setting,value
AEALLADGL,Kd,HLA-B*08:03,≥ 20 µM
same,Kd,HLA-A*26:02,≥ 20 µM
same,Kd,HLA-A*69:01; [7],≥ 20 µM
same,Kd,HLA-B*58:01; [7],≥ 20 µM
same,Kd,HLA-A*68:02,≥ 20 µM
same,Kd,HLA-A*11:01; [7],≥ 20 µM
same,Kd,HLA-A*26:03,≥ 20 µM
same,Kd,HLA-A*31:01; [7],≥ 20 µM
same,Kd,HLA-B*44:02; [7],≥ 10 µM
same,Kd,HLA-B*18:01; [7],1.75 µM
same,Kd,HLA-B*27:05; [7],≥ 20 µM
same,Kd,HLA-A*02:01; [7],≥ 20 µM
same,Kd,HLA-B*15:17 [1],≥ 20 µM
same,Kd,HLA-B*40:01; [7],0.0113 µM
same,Kd,HLA-B*57:01; [7],≥ 20 µM
same,Kd,"HLA-B*08:02; source organism: Ravn virus - Ravn, Kenya, 1987",≥ 20 µM
same,Kd,HLA-B*48:01; [7],≥ 20 µM
same,Kd,HLA-B*07:02; [7],≥ 20 µM
same,Kd,HLA-A*01:01; [7],≥ 20 µM
same,Kd,HLA-B*39:01 [2],≥ 20 µM
ELYPTVNTY,Kd,HLA-A*69:01; [8],14.5 µM
same,Kd,HLA-A*02:50,≥ 20 µM
same,Kd,HLA-B*15:01; [8],0.228 µM
same,Kd,HLA-A*29:02,0.055 µM
same,Kd,HLA-B*44:02; [9],≥ 20 µM
same,Kd,HLA-A*02:10,≥ 20 µM
same,Kd,HLA-A*02:12; [9],≥ 20 µM
same,Kd,HLA-A*80:01,4.5 µM
same,Kd,HLA-A*02:19,≥ 20 µM
same,Kd,HLA-B*51:01,≥ 20 µM
same,Kd,HLA-A*23:01,≥ 20 µM
same,Kd,HLA-A*02:11; [9],≥ 20 µM
same,Kd,HLA-A*24:03,≥ 20 µM
same,Kd,HLA-B*57:01; [9],≥ 20 µM
same,Kd,HLA-A*30:01 [3],≥ 20 µM
same,Kd,HLA-A*03:01; [8],2.02 µM
LPVFATIGL,Kd,HLA-A*69:01; [10],0.0117 µM
same,Kd,HLA-B*58:01; [10],≥ 20 µM
same,Kd,HLA-B*08:01,≥ 20 µM
same,Kd,HLA-A*11:01; [10],≥ 20 µM
same,Kd,HLA-B*15:01; [10],≥ 20 µM
same,Kd,HLA-A*31:01; [10],≥ 20 µM
same,Kd,HLA-B*18:01; [10],3.1 µM
same,Kd,HLA-A*02:03,≥ 20 µM
same,Kd,HLA-B*27:05; [10],≥ 20 µM
same,Kd,HLA-B*46:01; [10],≥ 20 µM
same,Kd,HLA-A*02:12; [10],0.393 µM
same,Kd,HLA-B*38:01,≥ 20 µM
same,Kd,HLA-A*02:01; [10],7.53 µM
same,Kd,HLA-B*40:01; [10],≥ 20 µM
same,Kd,HLA-A*02:11; [10],0.146 µM
same,Kd,HLA-B*57:01; [10],≥ 20 µM
same,Kd,HLA-B*08:02; [10],≥ 20 µM
same,Kd,HLA-B*48:01; [10],≥ 20 µM
same,Kd,HLA-B*07:02; [10],0.0583 µM
same,Kd,HLA-A*01:01; [10],≥ 20 µM
same,Kd,HLA-A*26:01,≥ 20 µM
same,Kd,HLA-A*03:01; [10],≥ 20 µM
same,Kd,HLA-B*15:09,1.98 µM
same,Kd,HLA-B*15:17 [4],≥ 20 µM
same,Kd,HLA-A*30:01 [5],≥ 20 µM
same,Kd,HLA-B*39:01 [6],0.0902 µM
AQEDDQYVF,Kd,HLA-B*46:01; source organism: dengue virus type 4,≥ 20 µM
same,Kd,HLA-B*15:02,≥ 20 µM
